# Bridges are numbered along the chain shown (N, C = ends). Where no end group is shown, it is not given here. [ ]: non-standard residue; d: D form. dLys(N3) = [N-]=[N+]=NCCCC[C@@H](N)C(=O)O; Lys(N3) = [N-]=[N+]=NCCCC[C@H](N)C(=O)O; dPra = C#CC[C@@H](N)C(=O)O; Pra = C#CC[C@H](N)C(=O)O
# T1: β-catenin (UniProt P35222 1-781)
# T1 sequence (looked up): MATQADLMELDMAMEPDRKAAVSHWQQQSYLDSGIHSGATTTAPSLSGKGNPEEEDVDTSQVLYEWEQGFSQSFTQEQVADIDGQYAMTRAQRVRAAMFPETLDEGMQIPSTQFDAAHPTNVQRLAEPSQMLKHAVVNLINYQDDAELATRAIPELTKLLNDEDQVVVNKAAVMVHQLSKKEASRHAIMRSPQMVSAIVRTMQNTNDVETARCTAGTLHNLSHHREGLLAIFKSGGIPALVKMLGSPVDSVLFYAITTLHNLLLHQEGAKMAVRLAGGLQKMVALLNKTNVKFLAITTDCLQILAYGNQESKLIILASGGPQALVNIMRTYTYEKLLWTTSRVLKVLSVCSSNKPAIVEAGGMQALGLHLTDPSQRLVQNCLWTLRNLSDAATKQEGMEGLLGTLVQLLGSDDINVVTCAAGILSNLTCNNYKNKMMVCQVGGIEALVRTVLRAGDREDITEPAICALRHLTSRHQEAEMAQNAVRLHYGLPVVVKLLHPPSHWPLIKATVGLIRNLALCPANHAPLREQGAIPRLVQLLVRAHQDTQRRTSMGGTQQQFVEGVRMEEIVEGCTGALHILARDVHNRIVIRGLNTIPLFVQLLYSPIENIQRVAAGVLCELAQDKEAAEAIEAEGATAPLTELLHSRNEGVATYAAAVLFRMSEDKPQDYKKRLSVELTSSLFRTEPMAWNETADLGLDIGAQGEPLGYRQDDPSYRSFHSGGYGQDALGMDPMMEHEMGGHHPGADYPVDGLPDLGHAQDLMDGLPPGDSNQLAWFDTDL
# B1: triazole-stapled BCL9 peptide 11 (peptide)
# chain: LSQEQLEHR[Lys(N3)]RSL[Pra]TLRDIQRLLF
# modifications: triazole 10-14; not fully specified (N-terminus, C-terminus)
# B2: triazole-stapled BCL9 peptide 18 (reversed staple, D-Pra at position 360) (peptide)
# chain: LSQEQLEHR[dPra]RSL[Lys(N3)]TLRDIQRLLF
# modifications: triazole 10-14; not fully specified (N-terminus, C-terminus)
# B3: triazole-stapled BCL9 peptide 16 (reversed linker, L-Pra and L-Nle(εN3)) (peptide)
# chain: LSQEQLEHR[Pra]RSL[Lys(N3)]TLRDIQRLLF
# modifications: triazole 10-14; not fully specified (N-terminus, C-terminus)
# B4: triazole-stapled BCL9 peptide 17 (reversed staple, D-Nle(εN3) at i+4) (peptide)
# chain: LSQEQLEHR[Pra]RSL[dLys(N3)]TLRDIQRLLF
# modifications: triazole 10-14; not fully specified (N-terminus, C-terminus)
# B5: BCL9 peptide 9 (linear precursor of 17) (peptide)
# chain: LSQEQLEHR[Pra]RSL[dLys(N3)]TLRDIQRLLF
# modifications: not fully specified (N-terminus, C-terminus)
# B6: triazole-stapled BCL9 peptide 12 (peptide)
# chain: LSQEQLEHR[Lys(N3)]RSL[dPra]TLRDIQRLLF
# modifications: triazole 10-14; not fully specified (N-terminus, C-terminus)
# B7: BCL9 peptide 3 (linear precursor of 11) (peptide)
# chain: LSQEQLEHR[Lys(N3)]RSL[Pra]TLRDIQRLLF
# modifications: not fully specified (N-terminus, C-terminus)
# B8: BCL9 24-mer peptide 1 (peptide)
# peptide: Ac-LSQEQLEHRERSLQTLRDIQRMLF-NH2
# B9: BCL9 24-mer peptide 2 (M372L) (peptide)
# peptide: Ac-LSQEQLEHRERSLQTLRDIQRLLF-NH2
# B10: BCL9 peptide 4 (linear precursor of 12) (peptide)
# chain: LSQEQLEHR[Lys(N3)]RSL[dPra]TLRDIQRLLF
# modifications: not fully specified (N-terminus, C-terminus)
# B11: BCL9 peptide 21 (linkers closer to the C-terminus, linear) (peptide)
# chain: LSQEQLEHRERSL[Lys(N3)]TLR[dPra]IQRLLF
# modifications: not fully specified (N-terminus, C-terminus)
# B12: triazole-stapled BCL9 peptide 20 (staple closer to the N-terminus) (peptide)
# chain: LSQEQ[Lys(N3)]EHR[dPra]RSLQTLRDIQRLLF
# modifications: triazole 6-10; not fully specified (N-terminus, C-terminus)
# B13: BCL9 peptide 23 (reverse linkers towards the C-terminus, linear) (peptide)
# chain: LSQEQLEHRERSL[Pra]TLR[dLys(N3)]IQRLLF
# modifications: not fully specified (N-terminus, C-terminus)
# B14: BCL9 peptide 19 (linkers closer to the N-terminus, linear) (peptide)
# chain: LSQEQ[Lys(N3)]EHR[dPra]RSLQTLRDIQRLLF
# modifications: not fully specified (N-terminus, C-terminus)
# B15: triazole-stapled BCL9 peptide 24 (reverse staple towards the C-terminus) (peptide)
# chain: LSQEQLEHRERSL[Pra]TLR[dLys(N3)]IQRLLF
# modifications: triazole 14-18; not fully specified (N-terminus, C-terminus)
# B16: triazole-stapled BCL9 peptide 22 (C-terminal stapled peptide) (peptide)
# chain: LSQEQLEHRERSL[Lys(N3)]TLR[dPra]IQRLLF
# modifications: triazole 14-18; not fully specified (N-terminus, C-terminus)
# Target: T1, β-catenin
# Experiment: fluorescence polarisation
row,Binder,Ki [nM]
1,B1,330
2,B2,4300
3,B3,770
4,B4,1170
5,B5,11000
6,B6,130
7,B7,1400
8,B8,600
9,B9,940
10,B10,4900

# Target: T1, β-catenin
# Experiment: fluorescence polarisation
# Remark: another data set of the same source
row,Binder,Ki [nM]
1,B11,2010
2,B12,410
3,B13,6660
4,B14,1970
5,B15,560
6,B16,260

# — publication PMC3286869 (Journal of Medicinal Chemistry, 2012)
